The source of these data is publication PMC4132714, “Phospho-dependent and phospho-independent interactions of the helicase UPF1 with the NMD factors SMG5–SMG7 and SMG6” (Nucleic Acids Research, 2014).

Ends that are not written are not given here.

Assay [1] deals with T1, SMG5–7 TPR complex (heterodimer of SMG5 TPR and SMG7 TPR) (human, UniProt Q9UPR3 1-803; Q92540 1-499, Δ408–632).
T1 construct: SMG5, human, residues 1–803 with the predicted insertion 408–632 removed (SMG5 TPR); SMG7, human, residues 1–499 (SMG7 TPR); Written SMG5-His and His-(TEV)-SMG7 in the methods; also called SMG5–SMG7; SMG5–7 TPR heterodimer; not shown: His, N-terminal, cleaved; copies: 1 + 1
T1 sequence (looked up) 1: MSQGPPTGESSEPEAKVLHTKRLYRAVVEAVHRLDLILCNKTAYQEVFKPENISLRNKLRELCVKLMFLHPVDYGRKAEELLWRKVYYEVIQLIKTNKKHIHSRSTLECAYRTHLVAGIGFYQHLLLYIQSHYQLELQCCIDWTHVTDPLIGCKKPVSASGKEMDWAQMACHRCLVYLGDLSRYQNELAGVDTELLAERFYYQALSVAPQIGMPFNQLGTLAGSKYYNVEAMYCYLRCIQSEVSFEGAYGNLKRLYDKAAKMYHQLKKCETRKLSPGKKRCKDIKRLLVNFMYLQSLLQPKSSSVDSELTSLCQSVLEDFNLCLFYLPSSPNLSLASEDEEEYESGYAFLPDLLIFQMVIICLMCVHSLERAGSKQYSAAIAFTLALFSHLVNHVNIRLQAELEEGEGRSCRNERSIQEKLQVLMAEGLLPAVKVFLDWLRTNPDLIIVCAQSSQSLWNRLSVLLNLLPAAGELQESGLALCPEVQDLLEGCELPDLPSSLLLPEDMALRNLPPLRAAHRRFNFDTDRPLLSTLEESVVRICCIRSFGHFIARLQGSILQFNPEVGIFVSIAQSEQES
T1 sequence (looked up) 2: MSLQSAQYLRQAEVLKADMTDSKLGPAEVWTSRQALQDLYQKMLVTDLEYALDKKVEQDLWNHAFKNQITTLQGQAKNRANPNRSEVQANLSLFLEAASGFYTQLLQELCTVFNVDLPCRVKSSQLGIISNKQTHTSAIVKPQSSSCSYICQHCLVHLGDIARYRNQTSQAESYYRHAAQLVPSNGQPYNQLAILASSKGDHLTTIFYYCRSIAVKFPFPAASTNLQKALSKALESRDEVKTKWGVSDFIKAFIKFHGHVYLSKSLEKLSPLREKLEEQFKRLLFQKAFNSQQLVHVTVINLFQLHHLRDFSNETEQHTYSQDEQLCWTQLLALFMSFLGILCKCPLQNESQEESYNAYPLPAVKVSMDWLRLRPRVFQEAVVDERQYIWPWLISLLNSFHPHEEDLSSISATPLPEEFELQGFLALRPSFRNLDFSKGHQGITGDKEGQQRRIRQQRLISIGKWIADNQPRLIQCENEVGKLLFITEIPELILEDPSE
Nature of the assay: pull-down; GST pull-down, one prey: ∼2 μg GST-tagged bait with equal amount of untagged prey in 20 mM HEPES pH 7.5, 125 mM NaCl, 2% glycerol, 2 mM DTT (45 μl), 45 min at room temperature; glutathione–Sepharose beads in 20 mM HEPES pH 7.5, 150 mM NaCl, 10% glycerol, 2 mM DTT, 0.1% NP-40, 1 h at 4°C; eluted with glutathione; SDS-PAGE, Coomassie; GST-UPF1 constructs pre-treated with SMG1 wt or SMG1 KD where indicated. Conditions: both partners purified.

For assay [2], the target named is T2, SMG6fl (HA-Flag tagged, purified from HEK 293T cells) (human, UniProt Q86US8 1-1419).
T2 construct: SMG6, human, full length (SMG6CT ends at residue 1419)
T2 sequence (Q86US8 whole entry): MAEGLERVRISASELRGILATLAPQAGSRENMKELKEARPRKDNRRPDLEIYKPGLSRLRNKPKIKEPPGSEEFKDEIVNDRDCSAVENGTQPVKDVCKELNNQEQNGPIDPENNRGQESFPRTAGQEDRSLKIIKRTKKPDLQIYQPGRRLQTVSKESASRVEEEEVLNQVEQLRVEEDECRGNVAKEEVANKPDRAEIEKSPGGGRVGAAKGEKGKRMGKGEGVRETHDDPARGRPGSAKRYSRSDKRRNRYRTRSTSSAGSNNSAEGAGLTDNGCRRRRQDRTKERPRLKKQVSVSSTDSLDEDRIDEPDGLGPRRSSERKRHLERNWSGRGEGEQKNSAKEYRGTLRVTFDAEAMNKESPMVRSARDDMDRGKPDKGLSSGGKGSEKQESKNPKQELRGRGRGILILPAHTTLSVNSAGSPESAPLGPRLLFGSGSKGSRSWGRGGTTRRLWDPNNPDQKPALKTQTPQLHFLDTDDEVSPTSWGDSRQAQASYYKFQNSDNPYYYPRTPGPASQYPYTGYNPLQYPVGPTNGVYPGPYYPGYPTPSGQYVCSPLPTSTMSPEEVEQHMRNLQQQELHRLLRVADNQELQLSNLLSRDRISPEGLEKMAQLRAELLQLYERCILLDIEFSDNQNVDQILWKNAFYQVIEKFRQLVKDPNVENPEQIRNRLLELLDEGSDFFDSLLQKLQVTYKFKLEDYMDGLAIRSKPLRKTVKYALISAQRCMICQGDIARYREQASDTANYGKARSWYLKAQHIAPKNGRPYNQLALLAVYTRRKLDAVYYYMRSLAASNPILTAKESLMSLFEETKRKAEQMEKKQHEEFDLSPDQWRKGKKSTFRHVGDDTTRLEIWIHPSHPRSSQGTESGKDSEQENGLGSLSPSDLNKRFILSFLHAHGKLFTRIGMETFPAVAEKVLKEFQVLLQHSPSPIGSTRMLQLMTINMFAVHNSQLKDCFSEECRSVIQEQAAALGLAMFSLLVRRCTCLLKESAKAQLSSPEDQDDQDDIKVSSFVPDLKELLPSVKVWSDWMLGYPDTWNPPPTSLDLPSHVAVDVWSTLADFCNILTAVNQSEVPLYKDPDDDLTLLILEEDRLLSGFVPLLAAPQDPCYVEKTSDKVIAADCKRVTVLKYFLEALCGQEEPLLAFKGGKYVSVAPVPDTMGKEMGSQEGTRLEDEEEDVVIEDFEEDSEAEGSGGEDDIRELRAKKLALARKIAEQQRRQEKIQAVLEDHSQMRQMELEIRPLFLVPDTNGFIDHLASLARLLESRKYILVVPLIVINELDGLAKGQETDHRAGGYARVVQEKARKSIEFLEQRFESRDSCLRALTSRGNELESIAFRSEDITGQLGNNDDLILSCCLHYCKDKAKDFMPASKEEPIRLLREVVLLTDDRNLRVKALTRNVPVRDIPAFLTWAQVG
Nature of the assay: pull-down; GST pull-down as in Figure 1C with GST-UPF1fl as bait and several preys added together (SMG6fl, UPF2, UPF3, EJC; or SMG6fl and SMG5–7 TPR after treatment with SMG1 wt or KD); Coomassie. Conditions: both partners purified.

B1: GST-UPF1CT1 (residues 1052–1118) phosphorylated in vitro by SMG1 wt (domain or fragment, human, UniProt Q92900-2 1052-1118, looked up)
chain: {GST}-GALTQGYISMSQPSQMSQPGLSQPELSQDSYLGDEFKSQIDVALSQDSTYQGERAYQHGGVTGLSQY
modifications: also: phosphorylated in vitro by SMG1 at SQ motifs, sites not given here
notes: source: E. coli, purified, then phosphorylated in vitro with SMG1 wt
For the molecule B1, in assay [1], the binding result is “binds”.

B2: GST-UPF1CT4 (residues 1086–1118) phosphorylated in vitro by SMG1 wt (domain or fragment, human, UniProt Q92900-2 1086-1118, looked up)
chain: {GST}-EFKSQIDVALSQDSTYQGERAYQHGGVTGLSQY
modifications: also: phosphorylated in vitro by SMG1 at SQ motifs, sites not given here
notes: as for B1
Take B2: in assay [1], the binding result is listed as “binds”.

B3: GST-UPF1fl, unphosphorylated (mock-treated with SMG1 KD or not treated) (natural protein, human, UniProt Q92900-2 1-1118, looked up)
chain: MSVEAYGPSSQTLTFLDTEEAELLGADTQGSEFEFTDFTLPSQTQTPPGGPGGPGGGGAGGPGGAGAGAAAGQLDAQVGPEGILQNGAVDDSVAKTSQLLAELNFEEDEEDTYYTKDLPIHACSYCGIHDPACVVYCNTSKKWFCNGRGNTSGSHIVNHLVRAKCKEVTLHKDGPLGETVLECYNCGCRNVFLLGFIPAKADSVVVLLCRQPCASQSSLKDINWDSSQWQPLIQDRCFLSWLVKIPSEQEQLRARQITAQQINKLEELWKENPSATLEDLEKPGVDEEPQHVLLRYEDAYQYQNIFGPLVKLEADYDKKLKESQTQDNITVRWDLGLNKKRIAYFTLPKTDSDMRLMQGDEICLRYKGDLAPLWKGIGHVIKVPDNYGDEIAIELRSSVGAPVEVTHNFQVDFVWKSTSFDRMQSALKTFAVDETSVSGYIYHKLLGHEVEDVIIKCQLPKRFTAQGLPDLNHSQVYAVKTVLQRPLSLIQGPPGTGKTVTSATIVYHLARQGNGPVLVCAPSNIAVDQLTEKIHQTGLKVVRLCAKSREAIDSPVSFLALHNQIRNMDSMPELQKLQQLKDETGELSSADEKRYRALKRTAERELLMNADVICCTCVGAGDPRLAKMQFRSILIDESTQATEPECMVPVVLGAKQLILVGDHCQLGPVVMCKKAAKAGLSQSLFERLVVLGIRPIRLQVQYRMHPALSAFPSNIFYEGSLQNGVTAADRVKKGFDFQWPQPDKPMFFYVTQGQEEIASSGTSYLNRTEAANVEKITTKLLKAGAKPDQIGIITPYEGQRSYLVQYMQFSGSLHTKLYQEVEIASVDAFQGREKDFIILSCVRANEHQGIGFLNDPRRLNVALTRARYGVIIVGNPKALSKQPLWNHLLNYYKEQKVLVEGPLNNLRESLMQFSKPRKLVNTINPGARFMTTAMYDAREAIIPGSVYDRSSQGRPSSMYFQTHDQIGMISAGPSHVAAMNIPIPFNLVMPPMPPPGYFGQANGPAAGRGTPKGKTGRGGRQKNRFGLPGPSQTNLPNSQASQDVASQPFSQGALTQGYISMSQPSQMSQPGLSQPELSQDSYLGDEFKSQIDVALSQDSTYQGERAYQHGGVTGLSQY
notes: UPF1, human; also called full-length GST-UPF1; unphosphorylated UPF1
Regarding B3, in assay [2], the binding result is reported as “binds”.

B4: GST-UPF1fl phosphorylated in vitro by SMG1 wt (natural protein, human, UniProt Q92900-2 1-1118, looked up)
chain: B3 chain
modifications: phosphorylated by SMG1 at SQ and TQ motifs present exclusively in the N- and C-terminal tails; detected sites include Thr28, Ser1078, Ser1096 and Ser1116
notes: UPF1, human; also called phospho-UPF1; phospho-UPF1fl
Turning to B4, the binding result in assay [2] is “binds”.

B5: GST-UPF1CT2 (residues 1070–1118) phosphorylated in vitro by SMG1 wt (domain or fragment, human, UniProt Q92900-2 1070-1118, looked up)
chain: PGLSQPELSQDSYLGDEFKSQIDVALSQDSTYQGERAYQHGGVTGLSQY
modifications: not fully specified (N-terminus); also: phosphorylated in vitro by SMG1, sites not given here, GST fusion partner not in chain
notes: as for B1
For the molecule B5, in assay [1], the binding result is recorded as “binds”.

B6: GST-UPF1CT (residues 917–1118) phosphorylated in vitro by SMG1 wt (domain or fragment, human, UniProt Q92900-2 917-1118, looked up)
chain: RKLVNTINPGARFMTTAMYDAREAIIPGSVYDRSSQGRPSSMYFQTHDQIGMISAGPSHVAAMNIPIPFNLVMPPMPPPGYFGQANGPAAGRGTPKGKTGRGGRQKNRFGLPGPSQTNLPNSQASQDVASQPFSQGALTQGYISMSQPSQMSQPGLSQPELSQDSYLGDEFKSQIDVALSQDSTYQGERAYQHGGVTGLSQY
modifications: phosphorylated in vitro by SMG1 at SQ motifs; sites not stated for this construct
notes: also called C-terminal tail of UPF1; source: E. coli BL21 (DE3) STAR pRARE, purified, then phosphorylated in vitro with SMG1 wt
In the case of B6, the binding result in assay [1] is given as “binds”.
